Here are results for one molecule from paper PMC5866560 (Proceedings of the National Academy of Sciences of the …, 2018).

This assay has as its target T1, recombinant Bri2 protein covering residues 113 to 231 comprising the BRICHOS domain (human, UniProt Q9Y287-1 113-231).
T1 sequence (looked up): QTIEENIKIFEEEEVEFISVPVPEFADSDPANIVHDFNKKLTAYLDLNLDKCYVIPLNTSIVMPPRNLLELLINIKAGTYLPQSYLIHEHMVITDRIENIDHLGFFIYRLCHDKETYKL
Nature of the assay: immuno-electron microscopy.

On to KCNTATCATQRLANFLVHSSNNFGAILSSTNVGSNTY (peptide, UniProt P10997 34-70, looked up) [islet amyloid polypeptide IAPP 1–37], for which the binding result was “binds”.
